{
  "source": "paper PMC11066036",
  "about": "“HPK1 citron homology domain regulates phosphorylation of SLP76 and modulates kinase domain interaction dynamics” (Nature Communications, 2024)",
  "binders": {"B1": {"name": "SLP76 with SmBit tag (natural protein, UniProt Q13094 1-533, looked up)", "chain": "MALRNVPFRSEVLGWDPDSLADYFKKLNYKDCEKAVKKYHIDGARFLNLTENDIQKFPKLRVPILSKLSQEINKNEERRSIFTRKPQVPRFPEETESHEEDNGGWSSFEEDDYESPNDDQDGEDDGDYESPNEEEEAPVEDDADYEPPPSNDEEALQNSILPAKPFPNSNSMYIDRPPSGKTPQQPPVPPQRPMAALPPPPAGRNHSPLPPPQTNHEEPSRSRNHKTAKLPAPSIDRSTKPPLDRSLAPFDREPFTLGKKPPFSDKPSIPAGRSLGEHLPKIQKPPLPPTTERHERSSPLPGKKPPVPKHGWGPDRRENDEDDVHQRPLPQPALLPMSSNTFPSRSTKPSPMNPLPSSHMPGAFSESNSSFPQSASLPPYFSQGPSNRPPIRAEGRNFPLPLPNKPRPPSPAEEENSLNEEWYVSYITRPEAEAALRKINQDGTFLVRDSSKKTTTNPYVLMVLYKDKVYNIQIRYQKESQVYLLGTGLRGKEDFLSVSDIIDYFRKMPLLLIDGKNRGSRYQCTLTHAAGYP", "notes": "SLP76 (SH2 domain-containing leukocyte protein of 76 kD); also called SH2 domain-containing leukocyte protein of 76 kD; source: HPK1-/- Jurkat cells, transiently transfected, in live cells"}, "B2": {"name": "HPK1 kinase domain S171A (KD SA) (domain or fragment, UniProt Q92918 2-293, looked up)", "chain": "DVVDPDIFNRDPRDHYDLLQRLGGGTYGEVFKARDKVSGDLVALKMVKMEPDDDVSTLQKEILILKTCRHANIVAYHGSYLWLQKLWICMEFCGAGSLQDIYQVTGSLSELQISYVCREVLQGLAYLHSQKKIHRDIKGANILINDAGEVRLADFGISAQIGATLARRLAFIGTPYWMAPEVAAVALKGGYNELCDIWSLGITAIELAELQPPLFDVHPLRVLFLMTKSGYQPPRLKEKGKWSAAFHNFIKVTLTKSPKKRPSATKMLSHQLVSQPGLNRGLILDLLDKLKN", "notes": "source: recombinant, purified"}, "B3": {"name": "HPK1 kinase domain T165E/S171E (KD TSEE WT) (domain or fragment, UniProt Q92918 2-293, looked up)", "chain": "B2 chain with T164E, A170E", "notes": "HPK1 (MAP4K1) kinase domain, residues D2-N293, with the phosphomimetic mutations T165E/S171E; also called WT KD; active TSEE form; source: recombinant, purified"}, "B4": {"name": "HPK1 kinase domain T165E/S171E/L221K (KD TSEE L221K) (domain or fragment, UniProt Q92918 2-293, looked up)", "chain": "B2 chain with T164E, A170E, L220K", "notes": "HPK1 (MAP4K1) kinase domain, residues D2-N293, TSEE backbone with L221K; source: recombinant, purified"}, "B5": {"name": "HPK1 intact citron homology domain fragment (C428-E821), untagged (domain or fragment, UniProt Q92918-2 428-821, looked up)", "chain": "CASGPPPNSPRPGPPPSTSSPHLTAHSEPSLWNPPSRELDKPPLLPPKKEKMKRKGCALLVKLFNGCPLRIHSTAAWTHPSTKDQHLLLGAEEGIFILNRNDQEATLEMLFPSRTTWVYSINNVLMSLSGKTPHLYSHSILGLLERKETRAGNPIAHISPHRLLARKNMVSTKIQDTKGCRACCVAEGASSGGPFLCGALETSVVLLQWYQPMNKFLLVRQVLFPLPTPLSVFALLTGPGSELPAVCIGVSPGRPGKSVLFHTVRFGALSCWLGEMSTEHRGPVQVTQVEEDMVMVLMDGSVKLVTPEGSPVRGLRTPEIPMTEAVEAVAMVGGQLQAFWKHGVQVWALGSDQLLQELRDPTLTFRLLGSPRPVVVETRPVDDPTAPSNLYIQE", "notes": "HPK1 (MAP4K1), fragment left after thrombin cut after R427: two PR domains and the intact CHD, residues C428-E821; the protein is printed as M1-E821 (821 residues); Cut out of a full-length construct (T165E, S171E, R319A, thrombin site inserted after V384); none of these changes lies in the fragment; also called WT-CHD; CHD WT; source: sf9, purified; thrombin digest of full-length HPK1 (Ni, …)"}},
  "key": {"HPK1 ΔCHD with LgBit tag": {"target": "T1, HPK1 ΔCHD with LgBit tag (UniProt Q92918 1-483)", "T1 construct": "HPK1 (MAP4K1) without the CHD, M1-G483; limits as printed for the pMSCV construct of the same name; also called KD + 4PRs; source: HPK1-/- Jurkat cells, transiently transfected, in live cells", "T1 sequence (looked up)": "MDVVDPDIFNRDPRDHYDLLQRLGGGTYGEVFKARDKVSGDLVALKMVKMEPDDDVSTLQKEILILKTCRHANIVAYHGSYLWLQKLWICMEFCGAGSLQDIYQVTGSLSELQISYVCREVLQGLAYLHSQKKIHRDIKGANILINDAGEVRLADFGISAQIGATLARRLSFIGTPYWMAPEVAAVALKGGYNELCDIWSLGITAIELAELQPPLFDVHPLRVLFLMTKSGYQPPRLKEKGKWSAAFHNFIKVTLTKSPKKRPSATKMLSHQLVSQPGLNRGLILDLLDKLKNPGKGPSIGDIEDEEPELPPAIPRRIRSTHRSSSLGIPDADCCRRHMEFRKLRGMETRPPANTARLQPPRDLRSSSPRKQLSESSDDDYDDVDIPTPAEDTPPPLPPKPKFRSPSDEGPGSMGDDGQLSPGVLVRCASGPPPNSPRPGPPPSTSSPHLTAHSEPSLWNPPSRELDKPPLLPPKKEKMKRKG", "assay": "split reporter (BiFC, NanoBiT); NanoBit in live HPK1-/- Jurkat cells transiently transfected with SmBit-tagged SLP76 and LgBit-tagged HPK1 forms; luminescence over time, with or without TCR stimulation (anti-CD3 and anti-IgG)", "conditions": "partners not purified"}, "[1]": {"target": "B5", "assay": "SPR; Biacore T200; KD variants captured (56-73 RU) by a biotinylated anti-KD Fab on NeutrAvidin chip; WT-CHD injected as analyte at various concentrations; 20 mM HEPES, 300 mM NaCl, 0.1% polysorbate 20, 0.5 mM TCEP, pH 7.4; 25 °C", "conditions": "both partners purified"}, "[2]": {"target": "T2, HPK1 intact citron homology domain fragment with C-terminal Flag (Flag-CHD) (UniProt Q92918-2 428-821)", "T2 construct": "HPK1 (MAP4K1), intact CHD fragment from thrombin digestion of the full-length protein; the cut is told as after R427 (C428-E821) for the untagged construct; the protein is printed as M1-E821 (821 residues); the Flag form was made by the same digestion; also called intact CHD with C-flag; recombinant Flag-CHD; source: sf9, purified; thrombin digest of full-length HPK1 with C-terminal Flag (Ni, …)", "T2 sequence (looked up)": "B5 chain", "assay": "AlphaScreen or HTRF; TR-FRET saturation binding; KD at 5 µM constant, Flag-CHD 1.53 nM-6.25 µM; anti-KD biotinylated Fab with streptavidin-Lumi4Tb and anti-Flag-d2; 20 mM HEPES, 300 mM NaCl, 0.1% polysorbate 20, 0.5 mM TCEP, pH 7.4; apparent KD, called overestimated by the paper", "conditions": "both partners purified"}, "[3]": {"target": "full-length HPK1 (M1-E821, T165E, S171E, R319A, Y381E) with N-terminal His tag and C-terminal Flag (UniProt Q92918-2 1-821, T165E | S171E | R319A | Y381E, Isoform 2 (821 aa): C-terminus taken from 8EEC (entity position = residue - 478). N-terminal His and C-terminal Flag left out. A thrombin site after V384 may be present, but its sequence and its prese)", "assay": "AlphaScreen or HTRF; TR-FRET competition; 5 nM full-length HPK1 with C-terminal Flag labelled with anti-KD Fab-streptavidin-Lumi4Tb and anti-Flag-d2; untagged CHD titrated (23.84-97.65 µM as printed) against the KD-CHD interaction within the full-length protein; One site - Fit Ki", "conditions": "both partners purified"}},
  "note": "Numbering of substitutions follows the chain as printed. Numbers in names are those of the source.",
  "data": [
    {"binder": "B1", "values": [
      {"measurement": "level of interaction at baseline relative to full-length wild-type", "setting": "HPK1 ΔCHD with LgBit tag", "result": "~0.33 fold of full-length wild-type"}
    ]},
    {"binder": "B2", "values": [
      {"measurement": "binding result", "setting": "[1]", "result": "binds"}
    ]},
    {"binder": "B3", "values": [
      {"measurement": "Kd", "setting": "[2]", "result": 62.8, "unit": "nM"}
    ]},
    {"binder": "B4", "values": [
      {"measurement": "Kd", "setting": "[2]", "result": 37.9, "unit": "nM"}
    ]},
    {"binder": "B5", "values": [
      {"measurement": "Ki", "setting": "[3]", "result": 5990, "unit": "nM"}
    ]}
  ]
}
